The record followed here is paper doi:10.1101/2025.11.15.688598.

This test concerns the target Cy5-labeled proliferating cell nuclear antigen (PCNA) (human) (UniProt P12004).

Sequence of Cy5-labeled proliferating cell nuclear antigen (PCNA) (human) (P12004 whole entry): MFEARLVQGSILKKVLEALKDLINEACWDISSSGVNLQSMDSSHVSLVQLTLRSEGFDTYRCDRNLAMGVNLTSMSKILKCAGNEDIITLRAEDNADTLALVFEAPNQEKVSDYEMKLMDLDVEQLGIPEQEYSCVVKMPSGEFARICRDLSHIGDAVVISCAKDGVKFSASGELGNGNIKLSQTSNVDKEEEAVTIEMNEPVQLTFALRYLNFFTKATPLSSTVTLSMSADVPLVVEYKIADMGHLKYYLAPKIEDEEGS
Sequence of ΔN-PAF15 (truncated PAF15 variant lacking residues 2-31) (Q15004 32-111, stated change not applied): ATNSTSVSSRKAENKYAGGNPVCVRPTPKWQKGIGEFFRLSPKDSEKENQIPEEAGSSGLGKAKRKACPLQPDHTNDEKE
Sequence of PAF15^50–77 peptide (Q15004 50-77): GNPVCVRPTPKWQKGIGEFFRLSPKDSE
Sequence of Doubly monoubiquitinated PAF15 (Di-UbPAF15) (Q15004 whole entry, looked up): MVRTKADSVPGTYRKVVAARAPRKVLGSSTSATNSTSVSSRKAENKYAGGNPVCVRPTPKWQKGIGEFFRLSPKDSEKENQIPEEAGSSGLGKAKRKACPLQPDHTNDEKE

In turn, “ΔN-PAF15 (truncated PAF15 variant lacking residues 2-31) (from UniProt Q15004 32-111) (domain or fragment)” came in with a diffusion constant of Cy5-PCNA on DNA with 1 μM ΔN-PAF15 of 0.15 μm2/s.
Substance “Doubly monoubiquitinated PAF15 (Di-UbPAF15) (from UniProt Q15004 2-111) (complex)” registered a diffusion constant of Cy5-PCNA on DNA with 1 μM Di-UbPAF15 of 0.2 μm2/s.
PAF15^50–77 peptide registered a diffusion constant of Cy5-PCNA on DNA with 20 μM PAF15 50-77 of 0.22 μm2/s.
